Here are results for 45 variants from the Human Domainome abundance scans (Beltran et al. 2025).

± gives the uncertainty stated by the source.

B1: Intersectin-1, residues 1156 to 1213; numbered along this chain, Q15811 (parent)
chain: AVCQVIGMYDYTAQNDDELAFNKGQIINVLNKEDPDWWKGEVNGQVGLFPSNYVKLTT

This series covers variants of B1. Description: abundance fitness (aPCA) (normalised: wild type 0, dead -1); higher = more abundant; growth selection in yeast, the domain comes from the species named. Conditions: Homo sapiens.
Regarding AVCQVIGMYDYTAQNDDELAFNKGQIINVLNKEDPAWWKGEVNGQVGLFPSNYVKLTT [D36A], the abundance fitness was -0.004 ± 0.1. Turning to AVCQVIGMYDYTAQNDDELAFNKGQIINVLNKEDPMWWKGEVNGQVGLFPSNYVKLTT [D36M], the abundance fitness is -0.018 ± 0.13. Next, AVCQVIGMYDYTAQNDDELAFNKGQIINVLNKEDPGWWKGEVNGQVGLFPSNYVKLTT [D36G]: -0.279 ± 0.087.

For the variant AVCQVIGMYDYTAQNDDELAFNKGQIINVLNKEDPRWWKGEVNGQVGLFPSNYVKLTT [D36R], the abundance fitness was -0.009 ± 0.084. The figure for AVCQVIGMYDYTAQNDDELAFNKGQIINVLNKEDPLWWKGEVNGQVGLFPSNYVKLTT [D36L] is -0.072 ± 0.094; for AVCQVIGMYDYTAQNDDELAFNKGQIINVLNKEDPVWWKGEVNGQVGLFPSNYVKLTT [D36V] it is -0.069 ± 0.099; for AVCQVIGMYDYTAQNDDELAFNKGQIINVLNKEDPIWWKGEVNGQVGLFPSNYVKLTT [D36I] it is -0.138 ± 0.22. As to AVCQVIGMYDYTAQNDDELAFNKGQIINVLNKEDPSWWKGEVNGQVGLFPSNYVKLTT [D36S], the abundance fitness was -0.131 ± 0.096.

As to AVCQVIGMYDYTAQNDDELAFNKGQIINVLNKEDPEWWKGEVNGQVGLFPSNYVKLTT [D36E], the abundance fitness was -0.196 ± 0.12. AVCQVIGMYDYTAQNDDELAFNKGQIINVLNKEDPCWWKGEVNGQVGLFPSNYVKLTT [D36C]: the abundance fitness was -0.117 ± 0.14. With AVCQVIGMYDYTAQNDDELAFNKGQIINVLNKEDPFWWKGEVNGQVGLFPSNYVKLTT [D36F], the abundance fitness was -0.175 ± 0.14. Take AVCQVIGMYDYTAQNDDELAFNKGQIINVLNKEDPNWWKGEVNGQVGLFPSNYVKLTT [D36N]: the abundance fitness is -0.203 ± 0.15. With AVCQVIGMYDYTAQNDDELAFNKGQIINVLNKEDPHWWKGEVNGQVGLFPSNYVKLTT [D36H], the abundance fitness is -0.08 ± 0.15.

Consider AVCQVIGMYDYTAQNDDELAFNKGQIINVLNKEDPKWWKGEVNGQVGLFPSNYVKLTT [D36K], for which the abundance fitness was 0.071 ± 0.13.

For AVCQVIGMYDYTAQNDDELAFNKGQIINVLNKEDPTWWKGEVNGQVGLFPSNYVKLTT [D36T], the abundance fitness is -0.143 ± 0.12. In the case of AVCQVIGMYDYTAQNDDELAFNKGQIINVLNKEDPQWWKGEVNGQVGLFPSNYVKLTT [D36Q], the abundance fitness was -0.218 ± 0.16. In the case of AVCQVIGMYDYTAQNDDELAFNKGQIINVLNKEDPYWWKGEVNGQVGLFPSNYVKLTT [D36Y], the abundance fitness turned out to be 0.01 ± 0.24.

Regarding AVCQVIGMYDYTAQNDDELAFNKGQIINVLNKEDPPWWKGEVNGQVGLFPSNYVKLTT [D36P], the abundance fitness was -0.53 ± 0.14. For AVCQVIGMYDYTAQNDDELAFNKGQIINVLNKPDPDWWKGEVNGQVGLFPSNYVKLTT [E33P], the abundance fitness was -0.6 ± 0.23. The figure for AVCQVIGMYDYTAQNDDELAFNKGQIINVLNKWDPDWWKGEVNGQVGLFPSNYVKLTT [E33W] is -0.987 ± 0.2. Consider AVCQVIGMYDYTAQNDDELAFNKGQIINVLNKGDPDWWKGEVNGQVGLFPSNYVKLTT [E33G], for which the abundance fitness was -0.241 ± 0.098. Next, AVCQVIGMYDYTAQNDDELAFNKGQIINVLNKRDPDWWKGEVNGQVGLFPSNYVKLTT [E33R]: -0.367 ± 0.11; AVCQVIGMYDYTAQNDDELAFNKGQIINVLNKQDPDWWKGEVNGQVGLFPSNYVKLTT [E33Q]: -0.077 ± 0.24. AVCQVIGMYDYTAQNDDELAFNKGQIINVLNKFDPDWWKGEVNGQVGLFPSNYVKLTT [E33F]: the abundance fitness was -0.61 ± 0.22. For AVCQVIGMYDYTAQNDDELAFNKGQIINVLNKIDPDWWKGEVNGQVGLFPSNYVKLTT [E33I], the abundance fitness was -0.451 ± 0.35.

In the case of AVCQVIGMYDYTAQNDDELAFNKGQIINVLNKNDPDWWKGEVNGQVGLFPSNYVKLTT [E33N], the abundance fitness was -0.516 ± 0.23.

Regarding AVCQVIGMYDYTAQNDDELAFNKGQIINVLNKHDPDWWKGEVNGQVGLFPSNYVKLTT [E33H], the abundance fitness was -0.373 ± 0.18. The figure for AVCQVIGMYDYTAQNDDELAFNKGQIINVLNKVDPDWWKGEVNGQVGLFPSNYVKLTT [E33V] is -0.324 ± 0.14; for AVCQVIGMYDYTAQNDDELAFNKGQIINVLNKLDPDWWKGEVNGQVGLFPSNYVKLTT [E33L] it is -0.497 ± 0.14; for AVCQVIGMYDYTAQNDDELAFNKGQIINVLNKTDPDWWKGEVNGQVGLFPSNYVKLTT [E33T] it is -0.075 ± 0.15.

AVCQVIGMYDYTAQNDDELAFNKGQIINVLNKSDPDWWKGEVNGQVGLFPSNYVKLTT [E33S]: the abundance fitness is -0.101 ± 0.11. Regarding AVCQVIGMYDYTAQNDDELAFNKGQIINVLNKADPDWWKGEVNGQVGLFPSNYVKLTT [E33A], the abundance fitness was -0.211 ± 0.11. For AVCQVIGMYDYTAQNDDELAFNKGQIINVLNKKDPDWWKGEVNGQVGLFPSNYVKLTT [E33K], the abundance fitness was -0.236 ± 0.18. The figure for AVCQVIGMYDYTAQNDDELAFNKGQIINVLNKDDPDWWKGEVNGQVGLFPSNYVKLTT [E33D] is -0.047 ± 0.16; for AVCQVIGMYDYTAQNDDELAFNKGQIINVLNKEKPDWWKGEVNGQVGLFPSNYVKLTT [D34K] it is -0.176 ± 0.2.

For AVCQVIGMYDYTAQNDDELAFNKGQIINVLNKESPDWWKGEVNGQVGLFPSNYVKLTT [D34S], the abundance fitness was -0.221 ± 0.098. The figure for AVCQVIGMYDYTAQNDDELAFNKGQIINVLNKEHPDWWKGEVNGQVGLFPSNYVKLTT [D34H] is -0.158 ± 0.17; for AVCQVIGMYDYTAQNDDELAFNKGQIINVLNKERPDWWKGEVNGQVGLFPSNYVKLTT [D34R] it is -0.116 ± 0.1. The figure for AVCQVIGMYDYTAQNDDELAFNKGQIINVLNKEWPDWWKGEVNGQVGLFPSNYVKLTT [D34W] is -0.894 ± 0.19; for AVCQVIGMYDYTAQNDDELAFNKGQIINVLNKENPDWWKGEVNGQVGLFPSNYVKLTT [D34N] it is -0.348 ± 0.17. AVCQVIGMYDYTAQNDDELAFNKGQIINVLNKEPPDWWKGEVNGQVGLFPSNYVKLTT [D34P]: the abundance fitness was -0.543 ± 0.24. The figure for AVCQVIGMYDYTAQNDDELAFNKGQIINVLNKEQPDWWKGEVNGQVGLFPSNYVKLTT [D34Q] is -0.489 ± 0.19; for AVCQVIGMYDYTAQNDDELAFNKGQIINVLNKEVPDWWKGEVNGQVGLFPSNYVKLTT [D34V] it is -0.691 ± 0.12; for AVCQVIGMYDYTAQNDDELAFNKGQIINVLNKELPDWWKGEVNGQVGLFPSNYVKLTT [D34L] it is -0.673 ± 0.14. Turning to AVCQVIGMYDYTAQNDDELAFNKGQIINVLNKECPDWWKGEVNGQVGLFPSNYVKLTT [D34C], the abundance fitness is -0.553 ± 0.14.
